T1: Vps8 with 3xFLAG tag (CORVET subunit) (yeast, UniProt P39702 1-1274)
T1 construct: UniProt P39702 printed for its AlphaFold model
T1 sequence: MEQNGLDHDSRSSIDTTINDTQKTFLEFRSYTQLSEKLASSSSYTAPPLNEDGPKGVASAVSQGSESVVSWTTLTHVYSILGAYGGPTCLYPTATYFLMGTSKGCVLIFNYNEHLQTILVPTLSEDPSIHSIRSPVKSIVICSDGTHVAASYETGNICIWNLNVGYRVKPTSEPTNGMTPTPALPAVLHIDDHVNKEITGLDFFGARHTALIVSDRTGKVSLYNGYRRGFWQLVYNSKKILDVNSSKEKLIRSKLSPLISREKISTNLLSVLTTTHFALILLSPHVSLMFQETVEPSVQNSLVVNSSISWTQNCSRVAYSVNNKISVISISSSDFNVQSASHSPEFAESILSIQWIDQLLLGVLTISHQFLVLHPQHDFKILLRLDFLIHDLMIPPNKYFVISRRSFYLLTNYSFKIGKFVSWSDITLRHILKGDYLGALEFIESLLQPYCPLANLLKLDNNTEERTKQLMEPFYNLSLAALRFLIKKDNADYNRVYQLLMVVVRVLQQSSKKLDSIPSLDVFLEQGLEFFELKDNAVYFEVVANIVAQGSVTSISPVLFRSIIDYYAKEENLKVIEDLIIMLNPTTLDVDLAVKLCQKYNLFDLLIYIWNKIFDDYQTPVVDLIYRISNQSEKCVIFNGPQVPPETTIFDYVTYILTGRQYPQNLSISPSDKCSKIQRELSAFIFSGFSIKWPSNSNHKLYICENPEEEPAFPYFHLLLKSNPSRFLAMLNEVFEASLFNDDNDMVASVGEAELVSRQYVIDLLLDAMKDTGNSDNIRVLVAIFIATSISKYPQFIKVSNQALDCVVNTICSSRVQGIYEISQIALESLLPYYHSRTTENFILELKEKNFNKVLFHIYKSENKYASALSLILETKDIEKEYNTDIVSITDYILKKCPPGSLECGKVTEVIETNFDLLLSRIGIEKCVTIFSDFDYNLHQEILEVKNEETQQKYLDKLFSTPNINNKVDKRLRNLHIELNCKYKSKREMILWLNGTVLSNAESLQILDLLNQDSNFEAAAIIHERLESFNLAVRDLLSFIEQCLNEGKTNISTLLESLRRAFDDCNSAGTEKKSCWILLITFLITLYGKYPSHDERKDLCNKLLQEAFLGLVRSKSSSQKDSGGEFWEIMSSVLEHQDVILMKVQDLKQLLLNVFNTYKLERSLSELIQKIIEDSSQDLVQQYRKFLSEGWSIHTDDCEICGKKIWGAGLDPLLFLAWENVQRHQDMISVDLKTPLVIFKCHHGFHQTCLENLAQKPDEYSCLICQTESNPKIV

T2: Vps18 (CORVET and HOPS core subunit) (yeast, UniProt P27801 1-918)
T2 construct: Vps18, yeast, core subunit shared by CORVET and HOPS
T2 sequence: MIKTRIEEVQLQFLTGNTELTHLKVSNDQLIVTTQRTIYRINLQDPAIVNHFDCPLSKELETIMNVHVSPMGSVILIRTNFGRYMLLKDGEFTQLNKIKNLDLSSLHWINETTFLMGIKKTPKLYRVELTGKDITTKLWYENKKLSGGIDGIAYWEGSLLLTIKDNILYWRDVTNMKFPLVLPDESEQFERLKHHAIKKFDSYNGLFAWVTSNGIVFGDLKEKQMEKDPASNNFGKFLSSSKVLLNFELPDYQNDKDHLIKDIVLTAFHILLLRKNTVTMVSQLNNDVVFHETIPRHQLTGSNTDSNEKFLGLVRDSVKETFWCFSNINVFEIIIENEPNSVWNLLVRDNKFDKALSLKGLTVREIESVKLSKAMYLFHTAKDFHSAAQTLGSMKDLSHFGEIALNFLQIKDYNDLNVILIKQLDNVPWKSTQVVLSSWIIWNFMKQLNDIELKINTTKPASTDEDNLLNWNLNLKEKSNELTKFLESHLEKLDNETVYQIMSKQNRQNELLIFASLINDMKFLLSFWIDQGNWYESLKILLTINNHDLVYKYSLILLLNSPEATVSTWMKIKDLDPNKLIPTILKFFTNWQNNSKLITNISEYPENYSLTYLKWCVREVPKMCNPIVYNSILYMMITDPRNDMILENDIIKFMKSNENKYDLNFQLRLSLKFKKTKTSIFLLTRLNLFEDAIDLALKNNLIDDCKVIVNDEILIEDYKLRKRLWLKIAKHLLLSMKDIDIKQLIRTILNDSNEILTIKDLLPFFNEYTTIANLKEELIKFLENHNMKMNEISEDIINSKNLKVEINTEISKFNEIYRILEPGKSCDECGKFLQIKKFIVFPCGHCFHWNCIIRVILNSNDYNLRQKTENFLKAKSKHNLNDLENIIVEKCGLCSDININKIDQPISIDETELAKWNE

B1: Vps11 (CORVET and HOPS core subunit) (natural protein, yeast)
chain: MSLSSWRQFQLFENIPIRDPNFGGDSLLYSDPTLCAATIVDPQTLIIAVNSNIIKVVKLNQSQVIHEFQSFPHDFQITFLKVINGEFLVALAESIGKPSLIRVYKLEKLPNREQLYHSQVELKNGNNTYPISVVSISNDLSCIVVGFINGKIILIRGDISRDRGSQQRIIYEDPSKEPITALFLNNDATACFAATTSRILLFNTTGRNRGRPSLVLNSKNGLDLNCGSFNPATNEFICCLSNFIEFFSSSGKKHQFAFDLSLRKRIFCVDKDHILIVTEETGVPTTSISVNELSPTIINRIFIIDAKNKIISLNFVVSSAIIDIFSTSQSGKNITYLLTSEGVMHRITPKSLENQINIIIQKELYPFALQLAKQHSLSPLDVQEIHKKYGDYLFKKGLRKEATDQYIQCLDVVETSEIISKFGVKEVPDPESMRNLADYLWSLIKNSISQRDHVTLLLIVLIKLKDVEGIDTFIQHFDRKGIWNEGVVMDDMDDVTFFYSDNDFFDLDLILELMKESDFKRLSYRLAKKYSKDSLIIVDILLNLLHNPVKAIKYIKSLPIDETLRCLVTYSKKLLEESPNETNALLIEVFTGKFKPSTFEVDLDRRDTTGDFSENIRTVFYSYKTFFNYMNSNGTSDAMSESSEASHEHEEPTYHPPKPSIVFSSFVTKPFEFVVFLEACLACYQQYEGFDEDRQVILTTLYDLYLNLAQNDVPERIDDWRSRATGVLRESNKLVYSAASNNTSKRVDNSIMLLISHMDQSSASAKDKTKIDIASFANDNPEMDLLSTFRAMTLNEEPSTCLKFLEKYGTEEPKLLQVALSYFVSNKLIFKEMGGNEVLKEKVLRPIIEGERMPLLDIIKALSRTNVAHFGLIQDIIIDHVKTEDTEIKRNEKLIESYDKELKEKNKKLKNTINSDQPLHVPLKNQTCFMCRLTLDIPVVFFKCGHIYHQHCLNEEEDTLESERKLFKCPKCLVDLETSNKLFEAQHEVVEKNDLLNFALNSEEGSRDRFKVITEFLGRGAISYSDITI
notes: Vps11, yeast, core subunit shared by CORVET and HOPS

Assays:
Experiment in all cases: cryo-EM structure; single-particle cryo-EM of the hexameric CORVET co-expressed in yeast and purified by 3xFLAG on Vps8 and SEC; about 0.8 mg/ml; consensus map 4.6 Å, local refinements to 3.8 Å
Details in all cases: both partners purified
[1] = molecular target: T1, Vps8 with 3xFLAG tag (CORVET subunit)
[2] = molecular target: T2, Vps18 (CORVET and HOPS core subunit)
[3] = molecular target: B1

| binding result [1] | binding result [2] | binding result [3] | Binder |
| --- | --- | --- | --- |
| binds | binds | – | Vps16 (CORVET and HOPS subunit, SNARE-binding module) (natural protein, yeast, Vps16, yeast, subunit shared by CORVET and HOPS) MKNPSFDWERLKDVFYRSRAIGELKWPTQYEEFKCALSLTVIAVEIQDFIQVYNYFGQLLGKINLQRIHEDIIKFEFDKDEKLILVTKSSIKIVKGWSPLTIESVPLQDPTIDTIWDYHNGIMLLAKSRDIYKLNGNEWELLYENKDKKYNLLTKNHWSCNDDSIILLDVDHVYQVSTSNGALLKLITDSSWHKVTISSRGFICLYNMKDNKLQIFRDPARILMEHNLDSTPDDICWCGNDTVACSFEDEIKLYGPDGLYVTFWYPFTVTNLRAEVDGLKVITTEKIYFLSRVQPQTSNIFRIGSTEPGAMLVDSFSLLEDHAPKAIEILKNFVLEKGVLDCIAAAIDEFEPKLQKMLLNAASYGKASLQYKSFDASIFVNACNTIKLLNCFRSFGIFLTVEEYRCISLKGVIDRLLKYHRYYECIQICKLANERFLLGYVFTEWAKDKIKGSPDMEDDELLDKIKSRLSVIDMTDTLQMVAVAKVAYLEGRFQLSRNLALLEKNEEARIEQLYNLDDDSIALKECIKVQNYSLTISLLIALSKKLTNSQLTKLLIIDMFNNPLYLYYMRMDKAYLYDFYRQTDRFIDLAHVLLQQGKEQQSLHSFLPQIKDLYSQVQNSEVVNNTIEQLQRQEKLWIYQESLGKRFAISFTNMTLDQTLSKLIETGQDKQVKEIVKKFKISEKKLYHLKCKTLVEAKKFDELLQFAQSRKSPIGYMPFYTYLKSRGHMDKASPYVNMIPGLSYQEKKKLYVECRGFRDAIQLAGKEKDIPGLKEIYNIIPPNEPELKALANETMSRI |
| binds | – | – | B1 |
| – | – | binds | Vps3 (CORVET subunit) (natural protein, yeast, UniProt P23643 printed for its AlphaFold model; N-terminal half (with the β-propeller) was removed from the deposited model; source: yeast lysate in the Vps8-ALFA pull-downs) MVKKKTNNDKGKEVKENEGKLDIDSESSPHERENDKKKTEDDSLRATESEETNTHNANPNETVRADKFSQEESRPIEDSPHTDKNTAQESCQPSSAEDNVINTDITSLNEKTSTNDEQEKGLPLKISEGPFTISTLLDNVPSDLIYTCCEAYENHIFLGTTTGDLLHYFELERGNYMLVSQTKFDAESNSKIDKILLLPKVEGALILCDNELVLFILPEFAPRPNTTRLKGISDVVICNFSRSSKAYRIYAFHAEGVRLLKISADSLVLTKAFNFKLIDKACAHEETLMVSKLNSYELINLKSSQVIPLFRISETDEDLEPIITSFNEQSEFLVCSGGGSYDSGAMALVVNHHGDIIKGTIVLKNYPRNVIVEFPYIIAESAFQSVDIYSALPSEKSQLLQSITTSGSDLKISKSDNVFTNTNNSEEFKEKIFNKLRLEPLTHSDNKFRIERERAFVEESYEEKTSLIVYNNLGIHLLVPTPMVLRFTSCEESEIDNIEDQLKKLAKKDLTKFEHIEAKYLMSLLLFLMTLHYDHIEDEVMKKWCDFSDKVDIRILFYMFGWKVYSEIWCFHGLINIVERLKSLKLTNKCENILKMLLMMKNELKKKNKTGLLTNDFDDIMKTIDITLFKLRLEKKETITVDMFERESYDEIIREINLHDDKLPRIELLIEIYKEKGEYLKALNLLREAGDYISLVSFIEENLKKLPEDYIKERIADDLLLTLKQGDENTEECAIKKVLKILDMACINKNDFLNKIPAEETSLKVSFIEQLGVQNSNDSKFLFNYYLAKLREIINQSNIWSILGDFIKEYKDDFAYDKTDITNFIHIKLKHSLQCENFSKYYEKCENLKSENEKDDEFINFTFDEISKIDKEHILTLLFFPNELTNWVSSEELLKIYLSFNDFRSVEKYIGKQNLVAVMKQYLDISSLNYSVELVTNLLQRNFELLDDTDIQLKILETIPSVFPVQTISELLLKVLIKYQEKKEESNLRKCLLKNQISISDELSRNFDSQG |

Reference: publication PMC11187117, “Structure of the endosomal CORVET tethering complex” (Nature Communications, 2024)
